Data reported in the supplement of paper PMC12764529.
± gives the half width of the 95% confidence interval.

experiment: folding stability dG unfold from trypsin proteolysis; higher = more stable
Outline: (§1)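 Designed mini-proteins with no cysteine and under 80 residues were kept only if AlphaFold2 dimer inter-PAE was above 15. In a PA-tagged cDNA display construct, they were digested with trypsin and chymotrypsin and then sequenced. K50 was inferred by Bayesian fitting of counts, and unfolding free energy was derived per protease or combined against a sequence-predicted unfolded-state K50 and a shared folded-state K50.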

Row | Sequence | folding stability dG unfold [kcal/mol]
1 | SAGMVTITVETTDPQGNWTTKTYEFPLDPGYSLDDVIKRHSPPNAKKYEVTKTEPPPPVTEIKLTVEPSSAG [r5_227_JUSTAS] | 0.698 ± 0.082
2 | SAGGSAGGSAVYRTEDGRWVLVVEEVDGELTVHVYRRVDGRWELVETYPLEDLSPEARAALSAGGSAGGSAG [r3_241_TrROS_Hall] | 1.48 ± 0.025
3 | SAEEEEVVEVELEIEIEMTPEELEELIEALRKAAEELGFEIEDIEIRVERKEDGTLRVTIRVKIRLPKPSAG [r14_109_TrROS_Hall] | 3.68 ± 0.13
4 | SAGGSAGGSAKEFVAKVITPDGKPFTIPFGGETEEEAIEKLKEAIKKAFPEYKGVKIELEEKSAGGSAGGSA [r18_434_TrMRF] | 0.873 ± 0.057
5 | SAGGSAGGTAEQIREIVEQLFRKRGMEPKKIEIKRVERNGDKVTIEVEWRWDNGRKRPRNIQIPSAGGSAGG [r6_841_TrROS] | 0.722 ± 0.17
6 | SAGGSAGGSMVTPDGRLVIEIEVSEEDIEKLKEEARKKLGVKEVKVEVEEKDGKLKVRIVVEPSAGGSAGGS [r12_929_TrROS_Hall] | 0.743 ± 0.092
7 | SAGGSAGGWRIKIMPMGGKKKKIPIDSPEEIIDKIQKEAKEDGLPGNVRITVEYNGQKRTFTIRSAGGSAGG [r6_532_TrROS] | 1.41 ± 0.16
8 | SAGGAGPEKAEELARALAAELEEEGREWRFKITYSAEPEILSIDVYPLSEPLVDDAKPGYRTLYYDAPSAGG [r13_693_TrMRF] | 0.659 ± 0.093
9 | SAGGMTETITGEFDDEEEAIAYAKKIVKEKYPNKNVTMEIETTYDPKTGKYKVTATITIPDEGEEHHSAGGS [r8_17_JUSTAS] | 4.72 ± 0.35
10 | SAGGSAGGSAMTAREIADELVKEGKEVKVTVRRPGEEKEITVTKEGEPLPPGAEIVKIEEVSAGGSAGGSAG [r3_421_TrROS_Hall] | -0.678 ± 0.19
11 | SAGGSGDPNAAPVVVKVTIDITRPTADDSYVTSPVELTLLESEVDEFLAELEKEPDLELKVEVTLESAGGSA [r2_270_JUSTAS] | 0.829 ± 0.063
12 | SAGGMKIKIEIEPEGDVVKVKIEIELPEGKVEVVEEEEAEVFEDGKIKVRFRVRRKDGPEFEFELDISAGGS [r8_449_TrMRF] | 3.49 ± 0.17
13 | SAGGSAGGSAGMTPEEEVEYEIEVPDPNSDNLKTKIKLKFPVGTPEEEIKKKAEELAKKLSAGGSAGGSAGG [r11_516_JUSTAS] | 1.67 ± 0.11
14 | SAGGSAGGSSMPFLNPDGHPAVLVEVDGSTGSLSVELRGPDGRPVLQVSVSVSGPATVTVRVGSAGGSAGGS [r12_960_JUSTAS] | 2.75 ± 0.11
15 | SAGGAFEMSNEYWFPDGFRVKLKVEVYPNGMFMLDLEIEPIPPPPPIKIEKDPDGEYKYDPNGQPQKDSAGG [r13_151_TrROS] | 2.58 ± 0.18
16 | SAGGSAGGSMTFEILPDGKTKTLTLDEAKELILNEVPPDTTVVNLDTGKVISAEEFLKLLGIKVSAGGSAGG [r6_937_JUSTAS] | 0.998 ± 0.016

Row | Sequence | folding stability dG unfold [kcal/mol]
17 | SAGGSAGGSAGGGVGIAEISFDPETQTVTIKAYNPETEEITEITIPVTNPLPLDLSDITSAGGSAGGSAGGS [r10_331_TrMRF] | 0.477 ± 0.085
18 | SAGGSAGGSLDPGEEVKIEITDWHPPNGYYRIKIEFPNGPPIDIWMPPDDPQQMKEQAKDLIKSAGGSAGGS [r20_167_TrROS] | -0.725 ± 0.46
19 | SAGPDKPLKIESIGGKFNPDNGVISIKLKVEDPGDGKTYDYTMQFPVRDPDNGKPYMFTFPMRIKVPDSAGG [r19_129_TrROS] | 0.645 ± 0.072
20 | SAGGSAGGSLSDLPPGVELIAVGDDVVAVRRPDGSVLVFVRERDRVFVRELSPDVSIEEALADSAGGSAGGS [r12_605_TrMRF] | 1.32 ± 0.029
21 | SAPNYVLVIKIKSTNTPYYIPVPEDVEIVVKKNKNGEITAVVKVKDPETGEYFVITFSGDAKIDKIEPVPSA [r9_467_TrMRF] | 2.21 ± 0.1
22 | SAGGKKIRIVMTEEEIKKLAEALAKELNVEVKIVKVEKKTVFDKNGKPVKTYVVVEIEVKKLPPGVKLSAGG [r13_943_TrROS_Hall] | 1.3 ± 0.099
23 | SAGGMLDLSDVEVLNTVPIGGGNYLVLLKVPKLGKVVVVPASDLKKLKENVPNVKISFTPVAPSESGSAGGS [r16_61_TrMRF] | 0.601 ± 0.025
24 | SAGPPEQKIKIKWYPPDDGQPQEIPGPVDDIKDILDKLGWPVTNIETDPDDNEVEIWVPFPNWWLHIKISAG [r5_521_TrROS] | 0.884 ± 0.036
25 | SAGGSAGGSAGGSGSMSVSGGPSVIVVTLPGGEKVVLPLDELDELYKLPYVSATTVSLPSAGGSAGGSAGGS [r4_348_JUSTAS] | 1.45 ± 0.065
26 | SAGGMEPIEIPAKVKITHNGKEQEYPLENVTIWPMPDGMYMIYNPDKGEMFFINPKNGRLMRIEIDDSAGGS [r16_721_TrROS] | 0.94 ± 0.092
27 | SAGMPKTTVETEIRFVETEEGIEAVAEVRTETETRVVVIPGHLGPEEAIEVLEKLLEEEGLELSRVEIGSAG [r5_305_TrMRF] | 0.646 ± 0.032
28 | SAGGSAGGSAGKKKTITIKIPGMSKEEIAKLIKEKFGPNVKITEIKENKDNLLEITVEVESAGGSAGGSAGG [r11_580_TrROS_Hall] | 2.79 ± 0.22
29 | SAGGKPVRIRSSNGWPIEINPEDGTIKVEFPGYEVEFEVKEDGTIQFQIRNPKDGKPIMPMTLQIEKSAGGS [r16_760_TrROS] | 0.694 ± 0.049
30 | SAGGSAGGSAGGKKIEIEFTVKILREPEPGELVPYEVKGKLEINIDPDGNLKIELKFEPGSAGGSAGGSAGG [r11_607_TrMRF] | 2.81 ± 0.11
31 | SAGGSAGGSFFIRVEYPKGKTRTYPIKNGPIEEALEQLPPGWDNVKVSIYNGNKPVEFEIPLPSAGGSAGGS [r12_767_TrROS] | 0.389 ± 0.13

experiment: folding stability dG unfold from chymotrypsin proteolysis; higher = more stable
Outline: as §1

Row | Sequence | folding stability dG unfold [kcal/mol]
32 | SAGMVTITVETTDPQGNWTTKTYEFPLDPGYSLDDVIKRHSPPNAKKYEVTKTEPPPPVTEIKLTVEPSSAG [r5_227_JUSTAS] | 1.1 ± 0.19
33 | SAGGSAGGSAVYRTEDGRWVLVVEEVDGELTVHVYRRVDGRWELVETYPLEDLSPEARAALSAGGSAGGSAG [r3_241_TrROS_Hall] | 2.33 ± 0.029
34 | SAEEEEVVEVELEIEIEMTPEELEELIEALRKAAEELGFEIEDIEIRVERKEDGTLRVTIRVKIRLPKPSAG [r14_109_TrROS_Hall] | 4.69 ± 0.48
35 | SAGGSAGGSAKEFVAKVITPDGKPFTIPFGGETEEEAIEKLKEAIKKAFPEYKGVKIELEEKSAGGSAGGSA [r18_434_TrMRF] | 0.626 ± 0.27
36 | SAGGSAGGTAEQIREIVEQLFRKRGMEPKKIEIKRVERNGDKVTIEVEWRWDNGRKRPRNIQIPSAGGSAGG [r6_841_TrROS] | 1.66 ± 0.12
37 | SAGGSAGGSMVTPDGRLVIEIEVSEEDIEKLKEEARKKLGVKEVKVEVEEKDGKLKVRIVVEPSAGGSAGGS [r12_929_TrROS_Hall] | 2.19 ± 0.15
38 | SAGGSAGGWRIKIMPMGGKKKKIPIDSPEEIIDKIQKEAKEDGLPGNVRITVEYNGQKRTFTIRSAGGSAGG [r6_532_TrROS] | -0.203 ± 0.6
39 | SAGGAGPEKAEELARALAAELEEEGREWRFKITYSAEPEILSIDVYPLSEPLVDDAKPGYRTLYYDAPSAGG [r13_693_TrMRF] | 1.19 ± 0.29
40 | SAGGMTETITGEFDDEEEAIAYAKKIVKEKYPNKNVTMEIETTYDPKTGKYKVTATITIPDEGEEHHSAGGS [r8_17_JUSTAS] | 5.61 ± 0.18
41 | SAGGSAGGSAMTAREIADELVKEGKEVKVTVRRPGEEKEITVTKEGEPLPPGAEIVKIEEVSAGGSAGGSAG [r3_421_TrROS_Hall] | 0.187 ± 0.08
42 | SAGGSGDPNAAPVVVKVTIDITRPTADDSYVTSPVELTLLESEVDEFLAELEKEPDLELKVEVTLESAGGSA [r2_270_JUSTAS] | 1.25 ± 0.026
43 | SAGGMKIKIEIEPEGDVVKVKIEIELPEGKVEVVEEEEAEVFEDGKIKVRFRVRRKDGPEFEFELDISAGGS [r8_449_TrMRF] | 4.41 ± 0.2
44 | SAGGSAGGSAGMTPEEEVEYEIEVPDPNSDNLKTKIKLKFPVGTPEEEIKKKAEELAKKLSAGGSAGGSAGG [r11_516_JUSTAS] | 1.67 ± 0.093
45 | SAGGSAGGSSMPFLNPDGHPAVLVEVDGSTGSLSVELRGPDGRPVLQVSVSVSGPATVTVRVGSAGGSAGGS [r12_960_JUSTAS] | 2.56 ± 0.086
46 | SAGGAFEMSNEYWFPDGFRVKLKVEVYPNGMFMLDLEIEPIPPPPPIKIEKDPDGEYKYDPNGQPQKDSAGG [r13_151_TrROS] | 3.36 ± 0.18
